Measurements taken from US20140228540A1, “POLYPEPTIDES THAT BIND TISSUE INHIBITOR OF METALLOPROTEINASE TYPE THREE (TIMP-3), COMPOSITIONS AND METHODS” (Amgen Inc., priority 2009, published 2014).

Key:
[1] = molecular target: MMP-13 (Homo sapiens, UniProt P45452); assay: TIMP-3 inhibition of MMP-13 (TIMP-3 alone); type: biochemical; settings: TIMP-3 at 0.25 nM, 1.5 nM MMP-13, absence of any antibody
Excerpt: This Example described MMP-13 Inhibition Assays useful for measuring the effect(s) of TIMP-3 binding proteins (also referred to as test molecules, including LRP-1 peptides and antibodies to TIMP-3) on the ability of TIMP-3 to inhibit MMP-13. First, a titration of TIMP-3 inhibition of MMP-13 is run to empirically determine the IC50 of TIMP-3. […] Briefly, test molecules are titrated in assay buffer and added to black polystyrene 96 or 384 well assay plate (Griener Bio-One, Germany). […] Then recombinant TIMP-3 is diluted in assay buffer (20 mM Tris, 10 mM CaCl2, 10 uM ZnCl2, 0.01% Brij 35 (Calbiochem/EMD, San Diego, Calif.), pH 7.5) to a previously determined concentration (for example, TIMP-3's IC70 with 3 nM being a typical concentration), added to the test molecules and rotated for 10 minutes at room temperature. […]
None of the 22 antibodies evaluated adversely affected the ability of TIMP-3 to inhibit MMP-13, nor did they have an effect upon MMP-13 itself. In the TIMP-3 accumulation assay, the antibodies were evaluated for reproducible, titratable increase in the accumulation of TIMP-3 in supernatant fluid at levels of at least about 1.5 times higher than that observed with a negative control antibody. […]

[2] = system: cartilage-explants; settings: addition of the protein to explants; cited from earlier work
[3] = system: rat medial meniscal tear model of osteoarthritis; settings: intra-articular injection; cited from earlier work

inhibition of MMP-13 activity [1]: 54%
B1: TIMP-3: tissue inhibitor of metalloproteinase 3, recombinant (protein, UniProt P35625 24-211, looked up)
Metalloproteinase inhibitor 3: CTCSPSHPQDAFCNSDIVIRAKVVGKKLVKEGPFGTLVYTIKQMKMYRGFTKMPHVQYIHTEASESLCGLKLEVNKYQYLLTGRVYDGKMYTGLCNFVERWDQLTLSQRKGLNYRYHLGCNCKIKSCYYLPCFVTSKNECLWTDMLSNFGYPGYQSKHYACIRQKGGYCSWYRGWAPPDKSIINATDP
cytokine-induced degradation of cartilage-explants [2]: prevents cytokine-induced degradation
cartilage damage [3]: reduces cartilage damage
